Reference: patent US20190127478A1 (published 2019)

Key:
Assay in all cases: Octet RED 96
FcRn = biological target: FcRn
FcgRIa = biological target: FcgRIa
FcgRIIIaV = biological target: FcgRIIIaV

B1: BCD-100 IgG1* (antibody)
heavy: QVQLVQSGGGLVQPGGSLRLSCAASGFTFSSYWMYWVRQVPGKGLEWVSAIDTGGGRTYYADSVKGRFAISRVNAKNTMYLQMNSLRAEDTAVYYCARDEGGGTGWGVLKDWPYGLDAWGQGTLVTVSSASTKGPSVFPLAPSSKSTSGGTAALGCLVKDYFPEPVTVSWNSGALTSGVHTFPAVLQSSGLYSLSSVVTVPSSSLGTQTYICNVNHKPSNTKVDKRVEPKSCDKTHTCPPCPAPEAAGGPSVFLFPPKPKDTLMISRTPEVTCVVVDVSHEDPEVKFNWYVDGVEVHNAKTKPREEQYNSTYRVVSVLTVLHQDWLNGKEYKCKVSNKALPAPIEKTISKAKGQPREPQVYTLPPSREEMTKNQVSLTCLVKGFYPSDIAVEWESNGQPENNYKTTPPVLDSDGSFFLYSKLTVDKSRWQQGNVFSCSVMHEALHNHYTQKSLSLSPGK
light: QPVLTQPLSVSVALGQTARITCGGNNIGSKNVHWYQQKPGQAPVLVIYRDSNRPSGIPERFSGSNSGNTATLTISRAQAGDEADYYCQVWDSSTAVFGTGTKLTVLQRTVAAPSVFIFPPSDEQLKSGTASVVCLLNNFYPREAKVQWKVDNALQSGNSQESVTEQDSKDSTYSLSSTLTLSKADYEKHKVYACEVTHQGLSSPVTKSFNRGEC
Kd (FcRn): 9.6 nM
Kd (FcgRIa): 750 nM
Kd (FcgRIIIaV): 740 nM
